Data taken from patent US9072737B2, “tPA mutant in the treatment of acute brain injury and neurodegenerative disorders” (HADASIT MEDICAL RESEARCH SERVICES & DEVELOPMENT LTD., priority 2008, dated 2015).
Entries after “also recorded” stand apart in the source; their conditions may differ.

What was measured:
CHI mice [1] = experiment: Neurological severity score (NSS) in closed head injury (CHI) model; assay type: in vivo; conditions: for NSS at day 20 following CHI: FIG. 2, 100 μg/mice i.p. two hours after CHI, compared with saline control
From the text: Briefly, after induction of ether anesthesia, a midline longitudinal incision was made, the skin was retracted and the skull was exposed. The left anterior frontal area was identified and a Teflon tipped cone (2-mm diameter) was placed 1 mm lateral to the midline, in the midcoronal plane. The head was held in place manually and a 75-g weight was dropped on the cone from a height of 18 cm, resulting in focal injury to the left hemisphere. […] In sham controls only anesthesia and skin incision were carried out.
Animals were awarded one point for failure to perform one item, so that scores can range from zero (healthy uninjured animals) to a maximum of 10, indicating severe neurological dysfunction, with failure to perform all tasks. The NSS obtained 1 h after trauma reflects the initial severity of injury and is inversely correlated with the neurological outcome. Animals were evaluated 5 h after CHI, and every two to three days until 20 days later. Each animal was assessed by an observer who was blinded to the treatment.
tPA has been reported to signal within the central nervous system by activating NMDA-R, a receptor for glutamine, implicated in neurotoxicity and exictotoxic neuronal cell death, through the cleavage of the NR-1 subunit of NMDA-R. The inventors therefore examined the effect of inhibiting tPA activation of NMDA-R on acute brain trauma, using a tPA mutated molecule devoid of serine protease catalytic activity. […] The effect of administering mutant tPA compositions was assessed using neurobehavioral evaluation based on the determination of a neurological severity score (NSS).

CHI mice [2] = experiment: Brain lesion size at day 20 post CHI; assay type: in vivo; conditions: p<0.005 vs control animals
Procedure: After the last NSS evaluation (day 20 post CHI) the brains were then extracted and sectioned coronally into 1-mm segments. The sections were photographed and the area of each section was determined using the NIH computer image analysis program. Any missing area was estimated by overlaying the affected section with images from the contralateral side from the same animal. The volume of the missing portion of the brain was defined as the sum of the missing areas in all sections multiplied by their thickness expressed in cubic pixels. […] Taken together, the data collected indicate that the tPA-S481A has a neuroprotective effect.

[3] = test system: Blood Brain Barrier (BBB); experiment: Blood brain barrier permeability, Evans blue uptake into brain; assay type: in vivo, mice; conditions: single i.p. injection 1 mg/kg, FIG. 3 and FIG. 4A
Procedure: The uptake of Evans blue dye into a brain tissue served as a marker to for quantifying disruption of the blood-brain barrier and increase in permeability of the BBB. […] Data was expressed as absorbance at 620 nm per gram of tissue. The mean±SEM of data from 8-9 animals/group are shown.
FIG. 4A. Mice were injected i.p. with 25 μl of saline or saline containing either WT-tPA or mtPA (1 mg/kg each) alone or together with PAI-1 derived 18 amino acids (aa) (as denoted by SEQ ID NO. 8) or 6 aa (as denoted by SEQ ID NO. 3) peptides (1 mg/kg each). Ten minutes later, the mice were given an i.v. injection of 2% Evans blue (EB) in saline. One hour after injection of dye, organs were cleared of blood by transcardiac perfusion. […] Extruded dye was quantified by absorbance at 620 nm. The figure presents a histogram illustration of the absorbance of EB at […] per gram of tissue. […]
To determine the effect of injection of tPA-S^481A on BBB function, anesthetized mice were injected i.p. with 25 μl of saline or saline containing tPA or tPA mutant (tPA-Ser^481Ala) (1 mg/kg each), followed by the intravenous injection of 2% Evans blue in saline. Evans blue was quantified by absorbance at 620 nm.
Plasminogen activator inhibitor-1 (PAI-1) is recognized as the inhibitor of tPA. […] Extruded dye was quantified by absorbance at 620 nm. Data are expressed in FIG. 4A as absorbance per gram of tissue.

[4] = test system: Blood Brain Barrier (BBB) after CHI; experiment: Duration of BBB permeability after CHI, Evans blue extravasation; assay type: in vivo, mice; conditions: mtPA i.p. 1, 2 or 3 hours after CHI; EB measured one hour after dye; FIG. 5
Procedure: Mice were treated with i.p. injection of mtPA 1, 2 or 3 hours after CHI. Five minutes after mtPA injection, the animals were given an IV injection of 2% Evans blue (EB) in saline. Extravasation of EB was measured one hour after injection of the dye. The figure presents a histogram illustration of the absorbance of EB at 620 nM per gram of tissue. The mean±SEM of data from 8-9 animals/group is shown. Abbreviations: Abs (Absorbance), T (time), h (hour), min. (minutes).
To examine the effect of tPA-S481A (mtPA) on BBB permeability after opening due to CHI, the tPA mutant was injected to 8-9 mice i.p. 1, 2 or 3 hours after CHI. Mice undergoing CHI alone served as controls for the indication of normal BBB behavior after head trauma. In both groups, the extravasation of EB was measured one hour after injection of the dye.

CHI mice [5] = experiment: Lactate and glutamate concentration in CSF after CHI; assay type: in vivo; conditions: 100 μg/mice i.p. two hours after CHI
Procedure: CSF samples were taken from the cisterna magna in anaesthetized mice, using a microcapillary as described by others. Samples were immediately frozen at −70° C. until analysis by high-performance liquid chromatography (HPLC). Glutamate and lactate were derivatized using ortho-phthaldialdehyde/b-mercaptoethanol and the samples were injected onto the column. Peaks were detected using a fluorescence detector.
Therefore, groups of 8-9 animals were injected with mutant tPA, (100 μg/mice) in saline or saline alone intraperitoneally (i.p.) two hours after the head trauma and, the concentration of lactate and glutamate in the CSF have been measured.

plasminogen = experiment: PA catalytic activity of tPA mutant; assay type: biochemical; conditions: data not shown
From the text: Tissue type plasminogen activator (tPA) a multidomain, glycosylated, serine protease is a fibrin specific activator of plasminogen and a very effective thrombolytic agent. It should be appreciated that “mutated tPA” or “mtPA” as used herein includes a mutated native tPA and recombinant mutated tPA, as well as modified forms of tPA that is devoid of the enzymatic activities of native tPA. More specifically, as used herein in the specification and in the claims section below, the term “devoid of protease or serine protease catalytic activity” and its derivatives refers to a mutated tPA molecule having impaired, decreased or reduced expression of activity. A preferred mutated tPA molecule lacks any catalytic activity. According to one embodiment of the present invention at least about 10-100%, more specifically, about 10%, 15%, 20%, 25%, 30%, 35%, 40%, 45%, 50%, 55%, 60%, 65%, 70%, 75%, 80%, 85%, 90%, 95%, 99% and even 100% of the tPA activity is abolished by the point mutation performed by the invention, as compared to the WT (wild type) tPA activity. It should be noted that the enzymatic activity of tPA can be measured by assessing the ability of the molecule to convert plasminogen to plasmin.

Molecule	neurological severity score (NSS) (CHI mice [1]; FIG. 1, 100 μg/mice i.p. two hours after head trauma, 10-point scale)	NSS at day 20 following CHI (CHI mice [1])	Lesion size (volume of missing portion of the brain) (CHI mice [2]) [pixels]	BBB permeability (Evans blue absorbance at 620 nm per gram of tissue) ([3]; 1 mg/kg)	duration of increased BBB permeability after CHI [4]	accumulation of lactate in CSF post-TBI (CHI mice [5]; FIG. 6A)	accumulation of glutamate in CSF post-TBI (CHI mice [5]; FIG. 6B)	PA catalytic activity (plasminogen)	BBB permeability (Evans blue absorbance at 620 nm per gram of tissue) [3]
tPA-S481A: Recombinant human tPA with Ser481 to Ala point mutation, catalytically inactive, two extra N-terminal residues RS, SEQ ID NO. 1 (protein, listed as Homo sapiens) RSGARSYQVICRDEKTQMIYQQHQSWLRPVLRSNRVEYCWCNSGRAQCHSVPVKSCSEPRCFNGGTCQQALYFSDFVCQCPEGFAGKCCEIDTRATCYEDQGISYRGTWSTAESGAECTNWNSSALAQKPYSGRRPDAIRLGLGNHNYCRNPDRDSKPWCYVFKAGKYSSEFCSTPACSEGNSDCYFGNGSAYRGTHSLTESGASCLPWNSMILIGKVYTAQNPSAQALGLGKHNYCRNPDGDAKPWCHVLKNRRLTWEYCDVPSCSTCGLRQYSQPQFRIKGGLFADIASHPWQAAIFAKHRRSPGERFLCGGILISSCWILSAAHCFQERFPPHHLTVILGRTYRVVPGEEEQKFEVEKYIVHKEFDDDTYDNDIALLQLKSDSSRCAQESSVVRTVCLPPADLQLPDWTECELSGYGKHEALSPFYSERLKEAHVRLYPSSRCTSQHLLNRTVTDNMLCAGDTRSGGPQANLHDACQGDAGGPLVCLNDGRMTLVGIISWGLGCGQKDVPGVYTKVTNYLDWIRDNMRP	0.43	significantly improved initial (not shown) and long-term (FIG. 2) neurological outcome	41525±10987	increased BBB permeability similar to the results of wild type; also recorded: increases BBB permeability to the same extent as WT-tPA	markedly extended the duration of increased BBB permeability	clearly alleviates the accumulation	clearly alleviates the accumulation	lacks any PA catalytic activity	
WT tPA: Recombinant wild type human tissue plasminogen activator expressed in S2 Drosophila system, SEQ ID NO. 2 (protein, listed as Homo sapiens) GARSYQVICRDEKTQMIYQQHQSWLRPVLRSNRVEYCWCNSGRAQCHSVPVKSCSEPRCFNGGTCQQALYFSDFVCQCPEGFAGKCCEIDTRATCYEDQGISYRGTWSTAESGAECTNWNSSALAQKPYSGRRPDAIRLGLGNHNYCRNPDRDSKPWCYVFKAGKYSSEFCSTPACSEGNSDCYFGNGSAYRGTHSLTESGASCLPWNSMILIGKVYTAQNPSAQALGLGKHNYCRNPDGDAKPWCHVLKNRRLTWEYCDVPSCSTCGLRQYSQPQFRIKGGLFADIASHPWQAAIFAKHRRSPGERFLCGGILISSCWILSAAHCFQERFPPHHLTVILGRTYRVVPGEEEQKFEVEKYIVHKEFDDDTYDNDIALLQLKSDSSRCAQESSVVRTVCLPPADLQLPDWTECELSGYGKHEALSPFYSERLKEAHVRLYPSSRCTSQHLLNRTVTDNMLCAGDTRSGGPQANLHDACQGDSGGPLVCLNDGRMTLVGIISWGLGCGQKDVPGVYTKVTNYLDWIRDNMRP		significantly higher than that of control mice	167289±31456						increased BBB permeability
